# In patent publication US20200079833A1 (AstraZeneca / MedImmune, published 2020):
# Non-standard residues stand in square brackets, D forms with d. No end group written: not given here. αMeF = C[C@](N)(Cc1ccccc1)C(=O)O; αMeK = C[C@](N)(CCCCN)C(=O)O; αMeS = C[C@](N)(CO)C(=O)O; Aib = CC(C)(N)C(=O)O
# T1: glucose-dependent insulinotropic peptide (gastric inhibitory polypeptide) receptor (human, UniProt P48546 22-466)
# T1 sequence (looked up): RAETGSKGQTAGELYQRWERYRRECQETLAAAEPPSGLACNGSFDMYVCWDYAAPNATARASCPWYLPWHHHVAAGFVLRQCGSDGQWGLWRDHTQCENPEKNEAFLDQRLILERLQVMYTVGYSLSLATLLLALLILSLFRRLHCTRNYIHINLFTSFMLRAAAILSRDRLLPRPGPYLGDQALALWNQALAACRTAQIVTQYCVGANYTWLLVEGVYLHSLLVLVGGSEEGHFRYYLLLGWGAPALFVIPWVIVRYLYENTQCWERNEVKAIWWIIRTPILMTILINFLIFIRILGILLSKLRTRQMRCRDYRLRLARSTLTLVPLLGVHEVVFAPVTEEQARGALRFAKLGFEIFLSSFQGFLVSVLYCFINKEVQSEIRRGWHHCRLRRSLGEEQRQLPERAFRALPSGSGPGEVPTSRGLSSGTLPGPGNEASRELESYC
# B1: SEQ ID NO 26 (peptide)
# peptide: H[Aib]EGS[αMeF]TADV[αMeS]S[αMeF]LEGEAA[αMeK]E[αMeF]IA[αMeF]VV[αMeK]GG-NH2
# modifications: N-terminus assumed
# SMILES: CC[C@H](C)[C@H](NC(=O)[C@](C)(Cc1ccccc1)NC(=O)[C@H](CCC(=O)O)NC(=O)[C@](C)(CCCCN)NC(=O)[C@H](C)NC(=O)[C@H](C)NC(=O)[C@H](CCC(=O)O)NC(=O)CNC(=O)[C@H](CCC(=O)O)NC(=O)[C@H](CC(C)C)NC(=O)[C@](C)(Cc1ccccc1)NC(=O)[C@H](CO)NC(=O)[C@](C)(CO)NC(=O)[C@@H](NC(=O)[C@H](CC(=O)O)NC(=O)[C@H](C)NC(=O)[C@@H](NC(=O)[C@](C)(Cc1ccccc1)NC(=O)[C@H](CO)NC(=O)CNC(=O)[C@H](CCC(=O)O)NC(=O)C(C)(C)NC(=O)[C@@H](N)Cc1c[nH]cn1)[C@@H](C)O)C(C)C)C(=O)N[C@@H](C)C(=O)N[C@@](C)(Cc1ccccc1)C(=O)N[C@H](C(=O)N[C@H](C(=O)N[C@@](C)(CCCCN)C(=O)NCC(=O)NCC(N)=O)C(C)C)C(C)C
# B2: SEQ ID NO 24 (peptide)
# peptide: H[Aib]EGTFT[Aib]DV[Aib]SYLEGQAAKEFIAWLVKGR-NH2
# modifications: N-terminus assumed
# SMILES: CC[C@H](C)[C@H](NC(=O)[C@H](Cc1ccccc1)NC(=O)[C@H](CCC(=O)O)NC(=O)[C@H](CCCCN)NC(=O)[C@H](C)NC(=O)[C@H](C)NC(=O)[C@H](CCC(N)=O)NC(=O)CNC(=O)[C@H](CCC(=O)O)NC(=O)[C@H](CC(C)C)NC(=O)[C@H](Cc1ccc(O)cc1)NC(=O)[C@H](CO)NC(=O)C(C)(C)NC(=O)[C@@H](NC(=O)[C@H](CC(=O)O)NC(=O)C(C)(C)NC(=O)[C@@H](NC(=O)[C@H](Cc1ccccc1)NC(=O)[C@@H](NC(=O)CNC(=O)[C@H](CCC(=O)O)NC(=O)C(C)(C)NC(=O)[C@@H](N)Cc1c[nH]cn1)[C@@H](C)O)[C@@H](C)O)C(C)C)C(=O)N[C@@H](C)C(=O)N[C@@H](Cc1c[nH]c2ccccc12)C(=O)N[C@@H](CC(C)C)C(=O)N[C@H](C(=O)N[C@@H](CCCCN)C(=O)NCC(=O)N[C@@H](CCCNC(=N)N)C(N)=O)C(C)C
# B3: SEQ ID NO 25 (peptide)
# peptide: H[Aib]EGS[αMeF]TGDV[αMeS]S[αMeF]LEGEAA[αMeK]E[αMeF]IA[αMeF]VV[αMeK]GG-NH2
# modifications: N-terminus assumed
# SMILES: CC[C@H](C)[C@H](NC(=O)[C@](C)(Cc1ccccc1)NC(=O)[C@H](CCC(=O)O)NC(=O)[C@](C)(CCCCN)NC(=O)[C@H](C)NC(=O)[C@H](C)NC(=O)[C@H](CCC(=O)O)NC(=O)CNC(=O)[C@H](CCC(=O)O)NC(=O)[C@H](CC(C)C)NC(=O)[C@](C)(Cc1ccccc1)NC(=O)[C@H](CO)NC(=O)[C@](C)(CO)NC(=O)[C@@H](NC(=O)[C@H](CC(=O)O)NC(=O)CNC(=O)[C@@H](NC(=O)[C@](C)(Cc1ccccc1)NC(=O)[C@H](CO)NC(=O)CNC(=O)[C@H](CCC(=O)O)NC(=O)C(C)(C)NC(=O)[C@@H](N)Cc1c[nH]cn1)[C@@H](C)O)C(C)C)C(=O)N[C@@H](C)C(=O)N[C@@](C)(Cc1ccccc1)C(=O)N[C@H](C(=O)N[C@H](C(=O)N[C@@](C)(CCCCN)C(=O)NCC(=O)NCC(N)=O)C(C)C)C(C)C
# B4: SEQ ID NO 18 (peptide)
# peptide: H[Aib]EGS[αMeF]T[αMeS]DV[αMeS]S[αMeF]LEGEAA[αMeK]E[αMeF]IA[αMeF]VV[αMeK]GG-NH2
# modifications: N-terminus assumed
# SMILES: CC[C@H](C)[C@H](NC(=O)[C@](C)(Cc1ccccc1)NC(=O)[C@H](CCC(=O)O)NC(=O)[C@](C)(CCCCN)NC(=O)[C@H](C)NC(=O)[C@H](C)NC(=O)[C@H](CCC(=O)O)NC(=O)CNC(=O)[C@H](CCC(=O)O)NC(=O)[C@H](CC(C)C)NC(=O)[C@](C)(Cc1ccccc1)NC(=O)[C@H](CO)NC(=O)[C@](C)(CO)NC(=O)[C@@H](NC(=O)[C@H](CC(=O)O)NC(=O)[C@](C)(CO)NC(=O)[C@@H](NC(=O)[C@](C)(Cc1ccccc1)NC(=O)[C@H](CO)NC(=O)CNC(=O)[C@H](CCC(=O)O)NC(=O)C(C)(C)NC(=O)[C@@H](N)Cc1c[nH]cn1)[C@@H](C)O)C(C)C)C(=O)N[C@@H](C)C(=O)N[C@@](C)(Cc1ccccc1)C(=O)N[C@H](C(=O)N[C@H](C(=O)N[C@@](C)(CCCCN)C(=O)NCC(=O)NCC(N)=O)C(C)C)C(C)C
# B5: SEQ ID NO 27 (peptide)
# peptide: H[Aib]EGS[αMeF]TDDV[αMeS]S[αMeF]LEGEAA[αMeK]E[αMeF]IA[αMeF]VV[αMeK]GG-NH2
# modifications: N-terminus assumed
# SMILES: CC[C@H](C)[C@H](NC(=O)[C@](C)(Cc1ccccc1)NC(=O)[C@H](CCC(=O)O)NC(=O)[C@](C)(CCCCN)NC(=O)[C@H](C)NC(=O)[C@H](C)NC(=O)[C@H](CCC(=O)O)NC(=O)CNC(=O)[C@H](CCC(=O)O)NC(=O)[C@H](CC(C)C)NC(=O)[C@](C)(Cc1ccccc1)NC(=O)[C@H](CO)NC(=O)[C@](C)(CO)NC(=O)[C@@H](NC(=O)[C@H](CC(=O)O)NC(=O)[C@H](CC(=O)O)NC(=O)[C@@H](NC(=O)[C@](C)(Cc1ccccc1)NC(=O)[C@H](CO)NC(=O)CNC(=O)[C@H](CCC(=O)O)NC(=O)C(C)(C)NC(=O)[C@@H](N)Cc1c[nH]cn1)[C@@H](C)O)C(C)C)C(=O)N[C@@H](C)C(=O)N[C@@](C)(Cc1ccccc1)C(=O)N[C@H](C(=O)N[C@H](C(=O)N[C@@](C)(CCCCN)C(=O)NCC(=O)NCC(N)=O)C(C)C)C(C)C
# Molecular target: T1, glucose-dependent insulinotropic …
# Assay: cell-based or functional assay
Binder,"Primary assay EC50 (cAMP), n1 [nM]","Primary assay EC50 (cAMP), n2 [nM]"
B1,100,100
B2,740,740
B3,100,100
HXEGTFTSDVXSYLEGQAAKEFIAWLVKGR (Aib 2; Aib 11; C-terminal amide) [SEQ ID NO 22],480,480
B4,100,100
B5,100,100
HXEGTFTSDVSSYLEGQAAKEFIAWLVKGRK (Aib 2; K(ε-γE-Palmitoyl) after R30; C-terminal amide) [SEQ ID NO 5],81,81
HXEGTFTXDVSSYLEGQAAKEFIAWLVKGR (Aib 2; Aib 8; C-terminal amide) [SEQ ID NO 20],290,290

# Molecular target: GLP-1 receptor (human, UniProt P43220 24-463)
# Assay: cell-based or functional assay
Binder,"Primary assay EC50 (cAMP), Mean pM GLP-1R [pM]","Primary assay EC50 (cAMP), n1 [nM]","Primary assay EC50 (cAMP), n2 [nM]"
B1,123,0.099,0.15
B2,5600,3.3,7.9
B3,544,0.5,0.59
HXEGTFTSDVXSYLEGQAAKEFIAWLVKGR (Aib 2; Aib 11; C-terminal amide) [SEQ ID NO 22],118,0.12,0.12
B4,4940,4.1,5.8
B5,446,0.42,0.48
HXEGTFTSDVSSYLEGQAAKEFIAWLVKGRK (Aib 2; K(ε-γE-Palmitoyl) after R30; C-terminal amide) [SEQ ID NO 5],6.5,0.0075,0.0055
HXEGTFTXDVSSYLEGQAAKEFIAWLVKGR (Aib 2; Aib 8; C-terminal amide) [SEQ ID NO 20],13400,15,12

# Molecular target: glucagon receptor (human, UniProt P47871 26-477)
# Assay: cell-based or functional assay
# Sequence of glucagon receptor (P47871 26-477): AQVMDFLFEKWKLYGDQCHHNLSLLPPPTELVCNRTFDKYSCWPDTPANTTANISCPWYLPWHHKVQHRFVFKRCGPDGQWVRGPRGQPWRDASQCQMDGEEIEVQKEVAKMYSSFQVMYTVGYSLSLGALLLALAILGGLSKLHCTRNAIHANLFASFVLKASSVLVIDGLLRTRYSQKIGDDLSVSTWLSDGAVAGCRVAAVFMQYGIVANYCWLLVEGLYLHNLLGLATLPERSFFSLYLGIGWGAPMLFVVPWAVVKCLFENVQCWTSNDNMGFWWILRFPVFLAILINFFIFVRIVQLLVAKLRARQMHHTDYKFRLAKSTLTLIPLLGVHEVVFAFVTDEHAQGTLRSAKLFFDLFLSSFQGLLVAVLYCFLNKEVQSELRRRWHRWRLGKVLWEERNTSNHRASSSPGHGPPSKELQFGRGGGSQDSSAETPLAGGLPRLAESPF
Binder,"Primary assay EC50 (cAMP), n1 [nM]","Primary assay EC50 (cAMP), n2 [nM]"
B1,100,30
B2,740,740
B3,100,22
HXEGTFTSDVXSYLEGQAAKEFIAWLVKGR (Aib 2; Aib 11; C-terminal amide) [SEQ ID NO 22],390,240
B4,100,100
B5,100,40
HXEGTFTSDVSSYLEGQAAKEFIAWLVKGRK (Aib 2; K(ε-γE-Palmitoyl) after R30; C-terminal amide) [SEQ ID NO 5],81,81
HXEGTFTXDVSSYLEGQAAKEFIAWLVKGR (Aib 2; Aib 8; C-terminal amide) [SEQ ID NO 20],290,290
